Laboratory results published in US20110189730 (published 2011).

What was measured:
[1] = target: T1, Sin Nombre hantavirus nucleocapsid protein (N) (Sin Nombre hantavirus) (UniProt Q89462); test: filter; conditions: 5' m7G cap
T1 sequence: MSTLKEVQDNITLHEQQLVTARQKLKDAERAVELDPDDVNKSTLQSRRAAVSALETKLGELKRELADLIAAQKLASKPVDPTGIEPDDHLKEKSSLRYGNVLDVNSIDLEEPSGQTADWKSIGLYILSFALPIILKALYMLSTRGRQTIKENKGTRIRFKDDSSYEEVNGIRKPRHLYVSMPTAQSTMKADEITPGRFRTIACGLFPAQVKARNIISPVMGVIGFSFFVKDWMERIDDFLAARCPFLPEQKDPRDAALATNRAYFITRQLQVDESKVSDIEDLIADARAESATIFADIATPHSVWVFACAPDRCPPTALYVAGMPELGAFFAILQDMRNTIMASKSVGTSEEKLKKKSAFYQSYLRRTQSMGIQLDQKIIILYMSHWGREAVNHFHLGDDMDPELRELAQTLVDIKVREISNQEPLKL

[2] = target: T2, Sin Nombre hantavirus nucleocapsid protein (N) (Sin Nombre hantavirus, UniProt Q89462 SEQ:1-428); test: filter; conditions: tags: C-terminal octahistidine tag, expressed in E. coli; label: 32P-CTP
T2 sequence: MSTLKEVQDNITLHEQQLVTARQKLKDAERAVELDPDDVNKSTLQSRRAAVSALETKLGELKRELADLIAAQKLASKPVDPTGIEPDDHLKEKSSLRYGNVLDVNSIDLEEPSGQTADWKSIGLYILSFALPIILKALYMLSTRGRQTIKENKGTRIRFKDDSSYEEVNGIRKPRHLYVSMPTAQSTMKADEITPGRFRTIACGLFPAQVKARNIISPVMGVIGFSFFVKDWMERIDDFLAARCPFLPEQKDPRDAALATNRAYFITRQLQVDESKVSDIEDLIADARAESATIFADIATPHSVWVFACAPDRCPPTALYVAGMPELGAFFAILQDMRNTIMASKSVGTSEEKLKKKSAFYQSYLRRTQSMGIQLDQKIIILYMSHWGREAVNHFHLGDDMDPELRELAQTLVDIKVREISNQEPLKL

Molecule	Kd [1] [nM]	Kd [2] [nM]
capped TriEx 5'-terminal decamer	130	–
GUCUCUCCCA (ssRNA, 5' m7G cap) [m7… capped decamer]	–	~130
GUCUCC (ssRNA, 5' m7G cap) [m7GUCUCC capped hexamer]	–	125
